# Source: patent US20240218065A1 (SHENGHE CHINA BIOPHARMACEUTICAL, published 2024)
# Read-outs that look alike come from different tables or passages of the source.
# B1: NKP30 humanized antibody (antibody, V domains shown)
# VH: EVQLVESGGGLVQPGGSLRLSCAASGITFSRSVMGWFRQAPGKLRELVAGITSDDNTDYADSVKGRFTISRDNSKNTLYLQMNSLRAEDTAVYYCNILPDSRLGWGQGTLVTVSS
# notes: detected with anti-human IgG-Fc
# B2: GN15-H (bispecific antibody, human IgG1, kappa)
# light: DVVMTQSPLSLPVTPGEPASISCRSSQSLVHSNRNTYLHWYLQKPGQSPQLLIYKVSNRFSGVPDRFSGSGSGTDFTLKISRVEAEDVGVYYCSQNTHVPPTFGQGTKLEIKRTVAAPSVFIFPPSDEQLKSGTASVVCLLNNFYPREAKVQWKVDNALQSGNSQESVTEQDSKDSTYSLSSTLTLSKADYEKHKVYACEVTHQGLSSPVTKSFNRGEC
# heavy 1: not shown
# heavy 2: QVQLVQSGAEVKKPGASVKVSCKASGYTFTDYEMHWVRQAPGQGLEWMGALDPKTGDTAYSQKFKGRVTLTADKSTSTAYMELSSLTSEDTAVYYCTRFYSYTYWGQGTLVTVSSASTKGPSVFPLAPSSKSTSGGTAALGCLVKDYFPEPVTVSWNSGALTSGVHTFPAVLQSSGLYSLSSVVTVPSSSLGTQTYICNVNHKPSNTKVDKKVEPKSCDKTHTCPPCPGGGGSGGGGSPALLLLLLLRPPATRGITCPPPMSVEHADIWVKSYSLYSRERYICNSGFKRKAGTSSLTECVLNKATNVAHWTTPSLKCIRDPALVHQRPAPPSTVTTAGVTPQPESLSPSGKEGGGGSGGGGSAPELLGGPSVFLFPPKPKDTLMISRTPEVTCVVVDVSHEDPEVKFNWYVDGVEVHNAKTKPREEQYNSTYRVVSVLTVLHQDWLNGKEYKCKVSNKALPAPIEKTISKAKGQPREPQVYTLPPSRDELTKNQVSLTCLVKGFYPSDIAVEWESNGQPENNYKTTPPVLDSDGSFFLASKLTVDKSRWQQGNVFSCSVMHEALHNHYTQKSLSLSPGK
# notes: Trifunctional antibody against GPC-3 and NKP30 with IL-15 and IL-15Rα sushi between CH1 and CH2; also called constructed antibody GN15-H; multifunctional antibody
# B3: GN15-A (bispecific antibody, human IgG1, kappa)
# light: EVQLVESGGGLVQPGGSLRLSCAASGITFSRSVMGWFRQAPGKLRELVAGITSDDNTDYADSVKGRFTISRDNSKNTLYLQMNSLRAEDTAVYYCNILPDSRLGWGQGTLVTVSSGGGGSGGGGSGGGGSDVVMTQSPLSLPVTPGEPASISCRSSQSLVHSNRNTYLHWYLQKPGQSPQLLIYKVSNRFSGVPDRFSGSGSGTDFTLKISRVEAEDVGVYYCSQNTHVPPTFGQGTKLEIKRTVAAPSVFIFPPSDEQLKSGTASVVCLLNNFYPREAKVQWKVDNALQSGNSQESVTEQDSKDSTYSLSSTLTLSKADYEKHKVYACEVTHQGLSSPVTKSFNRGEC
# heavy 1: not shown
# heavy 2: QVQLVQSGAEVKKPGASVKVSCKASGYTFTDYEMHWVRQAPGQGLEWMGALDPKTGDTAYSQKFKGRVTLTADKSTSTAYMELSSLTSEDTAVYYCTRFYSYTYWGQGTLVTVSSASTKGPSVFPLAPSSKSTSGGTAALGCLVKDYFPEPVTVSWNSGALTSGVHTFPAVLQSSGLYSLSSVVTVPSSSLGTQTYICNVNHKPSNTKVDKKVEPKSCDKTHTCPPCPGGGGSGGGGSPALLLLLLLRPPATRGITCPPPMSVEHADIWVKSYSLYSRERYICNSGFKRKAGTSSLTECVLNKATNVAHWTTPSLKCIRDPALVHQRPAPPSTVTTAGVTPQPESLSPSGKEGGGGSGGGGSAPELLGGPSVFLFPPKPKDTLMISRTPEVTCVVVDVSHEDPEVKFNWYVDGVEVHNAKTKPREEQYNSTYRVVSVLTVLHQDWLNGKEYKCKVSNKALPAPIEKTISKAKGQPREPQVYTLPPSRDELTKNQVSLTCLVKGFYPSDIAVEWESNGQPENNYKTTPPVLDSDGSFFLASKLTVDKSRWQQGNVFSCSVMHEALHNHYTQKSLSLSPGK
# notes: Trifunctional antibody against GPC-3 and NKP30 with IL-15 and IL-15Rα sushi between CH1 and CH2 of the two heavy chains; IgG1 knob/hole Fc; also called constructed antibody GN15-A; multifunctional antibody
# Tests used:
# [1] = target: T1, Human-NKP30-His (Kactus, cat: NKP-HM430) (human, UniProt O14931 19-138, limits assumed); test: ELISA: Human-NKP30-His coated, antibody titrated 3-fold from 10 µg/mL, HRP goat anti-human IgG-Fc, OD450-OD570
# T1 construct: also called NKP30 protein; NKP30-his protein; not shown: His tag
# T1 sequence (looked up): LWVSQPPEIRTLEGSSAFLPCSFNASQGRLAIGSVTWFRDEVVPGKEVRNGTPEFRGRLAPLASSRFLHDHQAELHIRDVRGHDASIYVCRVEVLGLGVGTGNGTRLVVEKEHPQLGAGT
# Method: (§1) Human-NKP30-His (Kactus, cat: NKP-HM430) was diluted to […] with PBS buffer at pH 7.4, added into the 96-well ELISA plate at 100 μL per well, coated overnight at 4° C., and blocked with 1% BSA blocking solution for 1 hour. The plate was washed 3 times with PBST, and the constructed antibodies were diluted to 10 μg/mL with 0.5% BSA sample diluent as the starting concentration, and then diluted by 3-fold gradient (11 gradients in total). A negative control (blank well and IgG1 isotype control) and a positive control were set, and the positive control was a NKP30 humanized antibody (sequence shown in SEQ ID No. 28), and incubated at 37° C. for 1 h at 100 μL per well. […] The absorbance value of each well in the 96-well plate was determined by selecting the wavelength of 450 nm and the reference wavelength of 570 nm on a multifunctional enzyme marker, and the absorbance value (OD)=OD₄₅₀ₙₘ−OD₅₇₀ₙₘ. The logarithm of the concentration of the constructed antibody was taken as the abscissa, and the measured absorbance value of each well was taken as the ordinate, and the Sigmoidaldose-response (Variable Slope) method (GraphPad Prism software, GraphPad Software, San Diego, California) was selected for nonlinear regression to obtain the binding curve of the target antibody to NKP30.
# [2] = target: T1, Human-NKP30-His (Kactus, cat: NKP-HM430); test: as above; remark: listed apart in the source
# Method: (§2) Human-NKP30-His (Kactus, cat: NKP-HM430) was diluted to […] with PBS buffer at pH 7.4, added into the 96-well ELISA plate at 100 μL per well, coated overnight at 4° C., and blocked with 1% BSA blocking solution for 1 hour. The plate was washed 3 times with PBST, and the constructed antibodies were diluted to 10 μg/mL with 0.5% BSA sample diluent as the starting concentration, and then diluted by 3-fold gradient (11 gradients in total). A negative control (blank well and IgG1 isotype control) and a positive control were set, and the positive control was a NKP30 humanized antibody (sequence shown in SEQ ID No. 28), and incubated at 37° C. for 1 h at 100 μL per well. The plate was washed 3 times with PBST, and then HRP-labelled goat anti-human IgG-Fc was diluted with the sample diluent at 1:20000. 100 μL was added into each well, and incubated at room temperature for 1 hour. The plate was washed 4 times with PBST, and 100 μL of TMB substrate was added into each well, and incubated at room temperature without light for 10 minutes. 100 μL of 1 M HCl solution was added into each well to terminate the color development reaction. The absorbance value of each well in the 96-well plate was determined by selecting the wavelength of 450 nm and the reference wavelength of 570 nm on a multifunctional enzyme marker, and the absorbance value (OD)=OD₄₅₀ₙₘ−OD₅₇₀ₙₘ. The logarithm of the concentration of the constructed antibody was taken as the abscissa, and the measured absorbance value of each well was taken as the ordinate, and the Sigmoidaldose-response (Variable Slope) method (GraphPad Prism software, GraphPad Software, San Diego, California) was selected for nonlinear regression to obtain the binding curve of the target antibody to NKP30.
# [3] = target: T1, Human-NKP30-His (Kactus, cat: NKP-HM430); test: as above; remark: listed apart in the source
# Method: as §2
# [4] = target: T1, Human-NKP30-His (Kactus, cat: NKP-HM430); test: as above; remark: listed apart in the source
# Method: as §1
# Human-GPC3-His [5] = target: T2, Human-GPC3-His (human, UniProt P51654 25-559, limits assumed); test: ELISA: Human-GPC3-His coated at 0.5 µg/mL, antibody titrated 3-fold from 10 µg/mL, HRP goat anti-human IgG-Fc, OD450-OD570
# T2 construct: Coated on the ELISA plate; also called GPC-3 protein; GPC3 protein; not shown: His tag
# Method: (§3) Human-GPC3-His was diluted to 0.5 μg/mL with PBS buffer at pH 7.4, added into the 96-well ELISA plate at 100 μL per well, coated overnight at 4° C., and blocked with 1% BSA blocking solution for 1 hour. The plate was washed 3 times with PBST, and the constructed antibody was diluted to 10 μg/mL with 0.5% BSA sample diluent as the starting concentration, and then diluted by 3-fold gradient (11 gradients in total) and incubated at 37° C. for 1 h at 100 μL per well. The plate was washed 3 times with PBST, and then HRP-labelled goat anti-human IgG-Fc was diluted with the sample diluent at 1:20000. 100 μL was added into each well, and incubated at room temperature for 1 hour. A negative control (blank well and IgG1 isotype control) and a positive control were set, and the positive control was a GPC-3 and CD3 bispecial antibody from the literature Hs, A, et al. “Engineering a bispecific antibody with a common light chain: Identification and optimization of an anti-CD3 epsilon and anti-GPC3 bispecific antibody, ERY974.” Methods 154 (2019): 10-20. (The GPC-3 and CD3 bispecial antibody sequence consists of SEQ ID No. 22, SEQ ID No. 23, and SEQ ID No. 24). The plate was washed 4 times with PBST, and 100 μL of TMB substrate was added into each well, and incubated at room temperature without light for 10 minutes. 100 μL of 1 M HCl solution was added into each well to terminate the color development reaction. The absorbance value of each well in the 96-well plate was determined by selecting the wavelength of 450 nm and the reference wavelength of 570 nm on a multifunctional enzyme marker, and the absorbance value (OD)=OD₄₅₀ₙₘ−OD₅₇₀ₙₘ. The logarithm of the concentration of the constructed antibody was taken as the abscissa, and the measured absorbance value of each well was taken as the ordinate, and the Sigmoidaldose-response (Variable Slope) method (GraphPad Prism software, GraphPad Software, San Diego, California) was selected for nonlinear regression to obtain the binding curve of the target antibody to the GPC-3 protein.
# Human-GPC3-His [6] = target: T2, Human-GPC3-His; test: as above; remark: listed apart in the source
# Method: as §3
# T2 sequence (P51654 25-559 limits assumed): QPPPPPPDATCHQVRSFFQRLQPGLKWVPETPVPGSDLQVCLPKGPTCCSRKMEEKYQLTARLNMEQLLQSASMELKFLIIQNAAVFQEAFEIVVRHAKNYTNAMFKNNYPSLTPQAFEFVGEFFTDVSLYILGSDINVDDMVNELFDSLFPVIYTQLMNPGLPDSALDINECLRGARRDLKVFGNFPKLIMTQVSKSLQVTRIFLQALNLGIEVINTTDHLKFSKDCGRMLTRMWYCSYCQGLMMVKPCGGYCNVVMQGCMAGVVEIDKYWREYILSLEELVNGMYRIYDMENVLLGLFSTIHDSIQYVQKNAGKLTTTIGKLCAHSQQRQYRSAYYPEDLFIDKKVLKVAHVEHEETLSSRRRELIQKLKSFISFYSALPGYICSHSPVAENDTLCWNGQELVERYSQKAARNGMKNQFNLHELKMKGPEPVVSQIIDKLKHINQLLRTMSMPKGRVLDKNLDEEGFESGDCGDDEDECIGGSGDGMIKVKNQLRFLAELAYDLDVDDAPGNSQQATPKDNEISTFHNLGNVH
Binder,EC50 (read off the curve) [1],EC50 (read off the curve) [2],EC50 (read off the curve) [3],EC50 (read off the curve) [4],EC50 (read off the curve) (Human-GPC3-His [5]),EC50 (read off the curve) (Human-GPC3-His [6])
B1,~0.03 µg/mL,~0.03 µg/mL,~0.03 µg/mL,~0.03 µg/mL,,
B2,,,,~0.06 µg/mL,~0.01 µg/mL,
B3,~0.02 µg/mL,,,,,~0.03 µg/mL
